Six molecules from paper PMC3587840 (Nature, 2010) can be followed below.

As usually defined, the Kd is the concentration at which binding is half-saturated. A high value points to lower affinity.

Numbering of substitutions follows the chain as printed. Names may count otherwise.

For test [1], the target named is T1, mouse PlxnA2_(1–4), C-terminal His-tag (mouse, UniProt P70207 35-703).
T1 sequence: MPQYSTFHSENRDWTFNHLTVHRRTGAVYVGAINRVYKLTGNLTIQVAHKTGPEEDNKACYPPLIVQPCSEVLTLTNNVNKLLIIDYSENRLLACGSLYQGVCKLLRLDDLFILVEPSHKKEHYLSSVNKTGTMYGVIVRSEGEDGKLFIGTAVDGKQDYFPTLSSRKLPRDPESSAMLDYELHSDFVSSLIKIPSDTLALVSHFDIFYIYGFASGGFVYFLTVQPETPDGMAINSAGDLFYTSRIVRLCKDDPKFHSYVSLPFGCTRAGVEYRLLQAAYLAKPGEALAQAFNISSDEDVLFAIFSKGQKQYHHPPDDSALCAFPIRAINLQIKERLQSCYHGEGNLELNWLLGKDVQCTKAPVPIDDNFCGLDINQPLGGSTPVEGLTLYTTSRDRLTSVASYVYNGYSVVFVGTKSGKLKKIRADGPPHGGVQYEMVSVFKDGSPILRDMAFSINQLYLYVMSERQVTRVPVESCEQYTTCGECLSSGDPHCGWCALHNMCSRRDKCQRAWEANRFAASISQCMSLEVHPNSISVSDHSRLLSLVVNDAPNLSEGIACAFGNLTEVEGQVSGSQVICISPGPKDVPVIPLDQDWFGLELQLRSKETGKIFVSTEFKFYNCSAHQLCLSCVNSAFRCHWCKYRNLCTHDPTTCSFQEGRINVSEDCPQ
The experiment in a line: SPR.

The next test addresses PlxnA2_(1–4)(D193K) (mouse, UniProt P70207 35-703, D193K). The test is described as follows: SPR. Background: SPR reads the build-up and loss of mass on a sensor chip optically.
The target in a further test is T2, SEMA4D_(ecto)(K395D) (human, UniProt Q92854 22-677, K395D).
T2 sequence: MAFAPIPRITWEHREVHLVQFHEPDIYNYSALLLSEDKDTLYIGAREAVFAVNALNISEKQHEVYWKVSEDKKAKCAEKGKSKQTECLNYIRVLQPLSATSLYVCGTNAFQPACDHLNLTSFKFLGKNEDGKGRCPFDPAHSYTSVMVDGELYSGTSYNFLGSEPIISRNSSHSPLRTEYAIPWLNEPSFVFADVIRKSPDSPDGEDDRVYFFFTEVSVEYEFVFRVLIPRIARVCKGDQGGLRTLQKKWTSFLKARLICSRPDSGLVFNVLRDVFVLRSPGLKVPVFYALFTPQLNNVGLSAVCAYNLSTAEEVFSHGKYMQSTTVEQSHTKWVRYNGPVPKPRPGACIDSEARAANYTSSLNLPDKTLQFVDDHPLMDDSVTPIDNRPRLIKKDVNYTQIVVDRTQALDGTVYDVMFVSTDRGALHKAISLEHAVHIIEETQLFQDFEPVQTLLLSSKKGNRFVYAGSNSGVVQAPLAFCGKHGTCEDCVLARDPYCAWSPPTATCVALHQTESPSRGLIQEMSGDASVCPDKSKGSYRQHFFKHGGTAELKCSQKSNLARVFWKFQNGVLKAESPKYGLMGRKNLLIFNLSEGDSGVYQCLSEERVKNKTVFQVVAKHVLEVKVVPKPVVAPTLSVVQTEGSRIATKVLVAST
The experiment in a line: SPR.

For test [2], the target named is T3, human SEMA4D_(ecto), C-terminal His-tag (human, UniProt Q92854 22-677).
T3 sequence: T2 sequence with D374K
The test is described as follows: SPR.

In test [3] the target is T4, SEMA4D_(ecto)(F244N/F246S) (human, UniProt Q92854 22-677, F244N | F246S).
T4 sequence: T2 sequence with F223N, F225S, D374K
The experiment in a line: SPR.

The target in test [4] is T3, human SEMA4D_(ecto), C-terminal His-tag. The experiment in a line: crystal structure.

B1: mouse Sema6A_(ecto), biotinylated at an engineered C-terminal tag (domain or fragment)
chain: GFPEDSEPISISHGNYTKQYPVFVGHKPGRNTTQRHRLDIQMIMIMNRTLYVAARDHIYTVDIDTSHTEEIYCSKKLTWKSRQADVDTCRMKGKHKDECHNFIKVLLKKNDDTLFVCGTNAFNPSCRNYRVDTLETFGDEFSGMARCPYDAKHANIALFADGKLYSATVTDFLAIDAVIYRSLGDSPTLRTVKHDSKWLKEPYFVQAVDYGDYIYFFFREIAVEYNTMGKVVFPRVAQVCKNDMGGSQRVLEKQWTSFLKARLNCSVPGDSHFYFNILQAVTDVIRINGRDVVLATFSTPYNSIPGSAVCAYDMLDIANVFTGRFKEQKSPDSTWTPVPDERVPKPRPGCCAGSSSLEKYATSNEFPDDTLNFIKTHPLMDEAVPSIINRPWFLRTMVRYRLTKIAVDNAAGPYQNHTVVFLGSEKGIILKFLARIGSSGFLNGSLFLEEMNVYNPEKCSYDGVEDKRIMGMQLDRASGSLYVAFSTCVIKVPLGRCERHGKCKKTCIASRDPYCGWVRESGSCAHLSPLSRLTFEQDIERGNTDGLGDCHNS
modifications: biotin on the engineered C-terminal tag (enzymatic)
In the case of B1, the Kd in test [1] was determined as 2.3 µM.

B2: Sema6A_(ecto)(I322E), coupled to the chip (domain or fragment, mouse, UniProt O35464 19-571, looked up)
chain: B1 chain with I304E
modifications: biotin on the engineered C-terminal tag (enzymatic)
As to B2, the binding result in test [1] is “binds”.

B3: mouse Sema6A_(ecto), C-terminal His-tag (domain or fragment)
chain: B1 chain
Regarding B3, the “fold weaker binding than wild type” value with PlxnA2_(1–4)(D193K) was more than 9 fold.

B4: PLXNB1_(1–2)(D139K) (domain or fragment)
chain: LQPLPPTAFTPNGTYLQHLARDPTSGTLYLGATNFLFQLSPGLQLEATVSTGPVLDSRDCLPPVMPDECPQAQPTNNPNQLLLVSPGALVVCGSVHQGVCEQRRLGQLEQLLLRPERPGKTQYVAANDPAVSTVGLVAQGLAGEPLLFVGRGYTSRGVGGGIPPITTRALWPPDPQAAFSYEETAKLAVGRLSEYSHHFVSAFARGASAYFLFLRRDLQAQSRAFRAYVSRVCLRDQHYYSYVELPLACEGGRYGLIQAAAVATSREVAHGEVLFAAFSSAAPPTVGRPPSAAAGASGASALCAFPLDEVDRLANRTRDACYTREGRAEDGTEVAYIEYDVNSDCAQLPVDTLDAYPCGSDHTPSPMASRVPLEATPILEWPGIQLTAVAVTMEDGHTIAFLGDSQGQLHRVYLGPGSDGHPYSTQSIQQGSAVSRDLTFDGTFEHLYVMTQSTLLKVPVASCAQHLDCASCLAHRDPYCGWCVLLGRCSRRSECSRGQGPEQWLWSFQPELGCLQ
Consider B4, for which the binding result in the test with SEMA4D_(ecto)(K395D) is “binds”.

B5: human PLXNB1_(1–2), biotinylated at an engineered C-terminal tag (domain or fragment)
chain: B4 chain with K120D
modifications: biotin on the engineered C-terminal tag (enzymatic)
In the case of B5, in test [2], the binding result was “binds”. Moreover, binding in test [3] was put at a Kd of 5.5 µM.

B6: human PLXNB1_(1–2), C-terminal His-tag (domain or fragment)
chain: B4 chain with K120D
In the case of B6, in test [4], the binding result is given as “binds”.
